We go through 5 molecules from publication PMC6533203.

One series has as its target CAP256 UCA. Nature of the series: BLI (Octet). The note with it: parent: est. 0.19; read off a plot.
The target of series [1] is CH01 inferred germline-reverted (iGL) antibody. Nature of the series: BLI (Octet). Conditions: parent: est. 0.12; read off a plot.
Series [2] addresses MT145K SOSIP.664 trimer (SIVcpzPtt (chimpanzee SIV), isolate MT145). Nature of the series: cryo-EM structure; unliganded MT145K trimer, global resolution ~4.1 Å.
The nature of series [3]: pseudovirus neutralization, TZM-bl cells, ID50. The note with it: glycan lost; control: MT145K virus.

As for MT145K SOSIP.664 trimer N160K, the response with CAP256 UCA was determined as 0.015 nm; in series [1], 0.04 nm.

With MT145K SOSIP.664 trimer R166S, the response in series [1] stood at 0.1 nm.

Regarding MT145K SOSIP.664 trimer K171E, in series [1], the response turned out to be 0.015 nm.

MT145K SOSIP.664 trimer (complex): the stoichiometry N (as a rule, the number of molecules, sites or subunits per partner or assembly) in series [2] was found to be 3.

B1: MT145K SOSIP.664 Env trimer (also MT145K Env pseudovirus): MT145K N160A (protein)
parent chain: MKVMGMKYYWWRNSCRSISIKLILIGWIASCFGEENWWVTVYYGVPVWREAKTTLFCASDAKSYSTEAHNIWATQACVPTDPTPQEVLLPNVTEEFNMWENYMVDQMQEDIISLWEQSLKPCVKLTPLCVTLTCNNPTNTSCTNSTDDRLGDMRNCSFNVTTELRDKKRQVYSLFYVEDITAIGNNSTYRLINCNTTAITQACPKTSFEPIPIHYCAPAGFALLKCNDIDYKGNETCKNVSTVHCTHGIKPVATTQLILNGSTADNQTVARIDPSENLAIIQLKDPVKITCRRPGNNTRGQIQIGPAMTFYNIENVVGDTRKAYCEINGTQWAKALNETKEVLRNILRKNISFMVPSGGDPEVTNHHFNCGGEFFYCNTSEIINITKINKTENMTIIPCRIRQIVNSWMRVGKGIFAPPIRGNITCTSNITGMLLEIHKNREDQGEDQDQNNTYVCLTGGNMKDIWRSELYKYKIVEIQPLGVAPTKSRRYAVEKQHHREKRALGLGALFLGFLGAAGSTMGAASVVLTVQARQLLTGIVQQQNNLLRAIEAQQHLLQLSVWGIKQLQARVLAVERYLRDQQLLGLWGCTGKTICPTAVRWNKTWGNISDYQVIWNNYTWQQWDREVNNYTGLIYTLLEEANTQQEKNEKELLELDSWANLWSWFDITNWLWYIKMFLIVVGGIIGLRICFAIGSLINRVRKGYSPLSLQTLIPANQGPDGLGETEKGGGENVRGRSIRLVSGFLPLVWEDLRNLLSFLYHQLRDCASLIWRLLEILGQYSLRGVQQIGTLLHQLRGTLQYWTTEIKNSAISLLDTTAIAVGEGTDRILEAITRLGRGILHIPRRIRQGLERALL
As to B1, the “other: neutralisation sensitivity” value in series [3] was “decreases”.
